Measured values as given in paper doi:10.1101/2022.06.15.496229 (bioRxiv, 2022).

B1: DHR2 domain of human DOCK10 (DOCK10^DHR2, residues 1695-2151) (domain or fragment)
chain: TPELRRTWLESMAKIHARNGDLSEAAMCYIHIAALIAEYLKRKGYWKVEKICTASLLSEDTHPCDSNSLLTTPSGGSMFSMGWPAFLSITPNIKEEGAMKEDSGMQDTPYNENILVEQLYMCVEFLWKSERYELIADVNKPIIAVFEKQRDFKKLSDLYYDIHRSYLKVAEVVNSEKRLFGRYYRVAFYGQGFFEEEEGKEYIYKEPKLTGLSEISQRLLKLYADKFGADNVKIIQDSNKVNPKDLDPKYAYIQVTYVTPFFEEKEIEDRKTDFEMHHNINRFVFETPFTLSGKKHGGVAEQCKRRTILTTSHLFPYVKKRIQVISQSSTELNPIEVAIDEMSKKVSELNQLCTMEEVDMIRLQLKLQGSVSVKVNAGPMAYARAFLEETNAKKYPDNQVKLLKEIFRQFADACGQALDVNERLIKEDQLEYQEELRSHYKDMLSELSTVMNEQITG
B2: CDC42 (residues 1-191) (natural protein)
chain: not shown

Columns and labels:
crystal structure = biological target: the molecule itself; assay: crystal structure
[1] = biological target: B1; assay: crystal structure
[2] = biological target: B1; assay: ITC

Binder | binding result (crystal structure) | stoichiometry N [1] [DOCK10^DHR2 per CDC42] | dH [2] [kcal/mol]
B1 | binds | – | –
B2 | – | 1 | 2.034 ± 0.0143
